{"source": "patent US20100129807A1", "about": "(published 2010)", "molecular_target": "T1, bacterial repressor protein LexA (UniProt P0A7C2 1-202)", "T1 construct": "One entry is used for LexA in all assays; also called LexA target (pEG202); LexA bait", "T1 sequence": "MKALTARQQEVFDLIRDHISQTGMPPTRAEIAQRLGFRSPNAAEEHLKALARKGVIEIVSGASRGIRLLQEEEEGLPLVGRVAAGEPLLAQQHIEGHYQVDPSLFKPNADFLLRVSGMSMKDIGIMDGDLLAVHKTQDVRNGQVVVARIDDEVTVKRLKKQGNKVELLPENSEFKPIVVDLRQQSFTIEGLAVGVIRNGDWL", "assay": "SPR (BiacoreX), L2 peptide immobilised on a CM5 chip, LexA injected", "note": "Where no end group is shown, it is not given here."}
{"binder": "H-GRKKRRQRRRPPQSRSWDLPGEY (Immobilised on a CM5 sensor chip for SPR)", "values": [{"measurement": "Kd", "result": 1700, "unit": "nM"}]}
